Like-named read-outs stand apart in the source and are kept apart here.

Experiment [1] concerns the target T1, oligomerized biotinylated synthetic human Aβ1-42 peptide (human, UniProt P05067 672-713, biotinylated (position not given)).
The target of experiment [2] is T1, oligomerized biotinylated synthetic …. This is another data set of the same source.

B1: human LilrB2 (leukocyte immunoglobulin-like receptor B2) expressed on HEK293 cells (receptor, UniProt Q8N423 22-597, looked up)
chain: QTGTIPKPTLWAEPDSVITQGSPVTLSCQGSLEAQEYRLYREKKSASWITRIRPELVKNGQFHIPSITWEHTGRYGCQYYSRARWSELSDPLVLVMTGAYPKPTLSAQPSPVVTSGGRVTLQCESQVAFGGFILCKEGEDEHPQCLNSQPHARGSSRAIFSVGPVSPNRRWSHRCYGYDLNSPYVWSSPSDLLELLVPGVSKKPSLSVQPGPVMAPGESLTLQCVSDVGYDRFVLYKEGERDLRQLPGRQPQAGLSQANFTLGPVSRSYGGQYRCYGAHNLSSECSAPSDPLDILITGQIRGTPFISVQPGPTVASGENVTLLCQSWRQFHTFLLTKAGAADAPLRLRSIHEYPKYQAEFPMSPVTSAHAGTYRCYGSLNSDPYLLSHPSEPLELVVSGPSMGSSPPPTGPISTPGPEDQPLTPTGSDPQSGLGRHLGVVIGILVAVVLLLLLLLLLFLILRHRRQGKHWTSTQRKADFQHPAGAVGPEPTDRGLQWRSSPAADAQEENLYAAVKDTQPEDGVEMDTRAAASEAPQDVTYAQLHSLTLRRKATEPPPSQEREPPAEPSIYATLAIH
In the case of B1, the Kd (as a rule, a measure of binding affinity in units of concentration) in experiment [1] was 250 nM; in experiment [2] it was 206 ± 65 nM.

The record behind these values is article PMC3853120 (Science (New York, N.Y.), 2013).
